Results reported in patent US11975040B2, “Plexin binding regulator” (The University of Tokyo, priority 2016, dated 2024).
Read-outs that look alike come from different tables or passages of the source. Positions of bridges follow the written chain, without caps; N, C: chain ends. Non-standard residues stand in square brackets, D forms with d. Residues, ends and D or L forms follow the SMILES beside them. No end group written: not given here.

Experiments:
[1] = stability test with serum protease; type: in vitro ADME; conditions: degradation by serum protease
Procedure: A stability test, with serum protease, of the cyclic peptide P6 and the cyclic peptide having an intramolecular lactam bridge structure was performed (FIG. 11c).

[2] = molecular target: T1, mouse Plexin B1 and Semaphorin 4D (Mus musculus, UniProt Q8CJH3); experiment: in vitro pulldown assay of mouse Plexin B1 / Semaphorin 4D interaction (AP activity); type: biochemical; conditions: compared with cyclic peptide P6
T1 sequence (Q8CJH3 20-535 limits assumed): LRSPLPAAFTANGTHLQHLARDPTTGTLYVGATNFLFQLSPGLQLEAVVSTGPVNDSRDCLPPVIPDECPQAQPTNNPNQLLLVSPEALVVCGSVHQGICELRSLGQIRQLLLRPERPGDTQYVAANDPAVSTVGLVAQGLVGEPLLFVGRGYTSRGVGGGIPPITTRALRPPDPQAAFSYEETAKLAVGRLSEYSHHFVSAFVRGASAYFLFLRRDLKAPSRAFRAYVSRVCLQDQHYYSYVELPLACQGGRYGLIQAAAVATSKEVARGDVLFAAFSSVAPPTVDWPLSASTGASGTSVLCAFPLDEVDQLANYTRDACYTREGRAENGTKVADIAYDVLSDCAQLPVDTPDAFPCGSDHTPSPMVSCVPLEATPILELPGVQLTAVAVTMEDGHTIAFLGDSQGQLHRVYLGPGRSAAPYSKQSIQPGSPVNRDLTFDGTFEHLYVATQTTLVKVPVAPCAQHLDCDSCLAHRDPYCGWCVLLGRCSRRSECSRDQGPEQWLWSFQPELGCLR
Procedure: The effect of the cyclic peptides shown in FIG. 2c on protein-protein interaction (PPI) of Plexin B1 and Semaphorin 4D was studied by in vitro pulldown assay (FIG. 3). • 1. Plexin B1 or Plexin A2 was immobilized on Sepharose beads. • 2. A cyclic peptide that bound to Plexin B1, a negative control peptide, or dimethylsulfoxide (DMSO) was added to Plexin-B1-immobilized beads. • 3. An alkali phosphatase (AP)-fused protein of Semaphorin 4D or Semaphorin 6A was added. • 4. After washing of the resulting beads, an increase in absorbance of the sample was measured at 405 nm to determined AP activity.
High AP activity relates to high interaction (5) between Semaphorin and Plexin and low AP activity relates to […] interaction (6) between Semaphorin and Plexin.

Plexin B1 [3] = experiment: Ka (µM^-1s^-1)
Text: (§1) Table printed on a drawing sheet, FIG. 2
Head of the field: Ka (µM^-1s^-1)
(§2) The sequences from top to bottom are SEQ ID NO: 40, SEQ ID NO: 31, SEQ ID NO: 37, SEQ ID NO: 30, SEQ ID NO: 38, and SEQ ID NO: 39.
(§3) First copying reader's note: The sequences are only the variable region of the cyclic scaffold drawn in panel b, DW(Variable region)CS-NH2 closed by a thioether bridge.
(§4) Where the first naming reader finds the target: description_of_the_figure: the respective amino acid sequence of the cyclic peptides and their binding affinity to Plexin B1

Plexin B1 [4] = experiment: KD (nM)
Text: as §1
(§5) Head of the field: KD (nM)
as §2, §3, §4

Plexin B1 [5] = experiment: Kd (s^-1)
Text: as §1
Head of the field: Kd (s^-1)
as §2, §3, §4

Plexin B1 [6] = experiment: ka (μM^-1s^-1)
Text: (§6) Table printed on a drawing sheet, FIG. 13
Head of the field: ka (μM^-1s^-1)
(§7) First copying reader's note: Panel b of FIG. 13; panel a is a bar chart and is left out.

Plexin B1 [7] = experiment: kd (ms^-1)
Text: as §6
Head of the field: kd (ms^-1)
as §7

Plexin B1 [8] = experiment: KD (nM); remark: listed apart in the source
Procedure: (§8) Table printed on a drawing sheet, FIG. 11
as §5
(§9) First copying reader's note: Panel a of FIG. 11; the BC8 row is highlighted with a frame on the sheet.
(§10) Where the first naming reader finds the target: passage: its binding affinity to Plexin B1 was analyzed by surface resonance plasmon (SPR) (FIG. 11a)

Plexin B1 [9] = experiment: KD (nM); remark: listed apart in the source
Text: as §6, §5, §7

Plexin B1 [10] = experiment: kd (s^-1)
Procedure: as §8
Head of the field: kd (s^-1)
as §9, §10

human Plexin B1 [11] = molecular target: T2, human Plexin B1 (human, UniProt O43157 20-535, limits assumed); experiment: SPR
T2 sequence (looked up): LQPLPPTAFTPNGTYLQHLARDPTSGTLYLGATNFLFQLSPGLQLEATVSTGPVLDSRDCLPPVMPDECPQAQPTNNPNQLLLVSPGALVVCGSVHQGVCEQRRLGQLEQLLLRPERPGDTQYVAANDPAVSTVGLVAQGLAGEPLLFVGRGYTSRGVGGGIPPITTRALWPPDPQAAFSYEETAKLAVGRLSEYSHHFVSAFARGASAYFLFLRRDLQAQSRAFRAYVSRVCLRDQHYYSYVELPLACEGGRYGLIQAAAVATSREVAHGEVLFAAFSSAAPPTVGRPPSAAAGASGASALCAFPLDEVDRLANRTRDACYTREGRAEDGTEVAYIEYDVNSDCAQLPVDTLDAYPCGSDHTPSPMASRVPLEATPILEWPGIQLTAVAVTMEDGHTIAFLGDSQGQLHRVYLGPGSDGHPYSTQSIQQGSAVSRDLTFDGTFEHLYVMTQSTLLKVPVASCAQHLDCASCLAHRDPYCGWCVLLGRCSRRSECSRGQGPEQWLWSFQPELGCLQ

human Plexin B1 [12] = molecular target: T2, human Plexin B1; experiment: SPR; remark: listed apart in the source
mouse Plexin B1 = molecular target: T3, mouse Plexin B1 (mouse, UniProt Q8CJH3 20-535, limits assumed); experiment: SPR
T3 sequence (looked up): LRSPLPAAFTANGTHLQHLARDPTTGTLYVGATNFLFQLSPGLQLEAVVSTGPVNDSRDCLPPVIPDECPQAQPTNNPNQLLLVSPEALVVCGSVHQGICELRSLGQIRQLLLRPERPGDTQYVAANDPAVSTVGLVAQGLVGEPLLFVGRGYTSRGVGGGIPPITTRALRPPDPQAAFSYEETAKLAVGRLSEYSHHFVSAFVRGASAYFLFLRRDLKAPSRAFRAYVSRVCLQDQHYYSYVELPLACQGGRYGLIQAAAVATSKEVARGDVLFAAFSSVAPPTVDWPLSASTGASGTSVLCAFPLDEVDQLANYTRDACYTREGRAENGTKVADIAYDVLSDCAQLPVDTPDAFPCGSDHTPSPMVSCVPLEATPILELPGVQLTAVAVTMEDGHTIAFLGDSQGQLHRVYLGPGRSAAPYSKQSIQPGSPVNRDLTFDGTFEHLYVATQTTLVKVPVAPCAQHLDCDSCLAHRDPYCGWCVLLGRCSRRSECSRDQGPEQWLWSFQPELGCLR

human Plexin B1 [13] = molecular target: T2, human Plexin B1; experiment: SPR; remark: listed apart in the source

CC[C@H](C)[C@@H]1NC(=O)[C@H](CCC(N)=O)NC(=O)CNC(=O)[C@H]([C@@H](C)O)NC(=O)[C@H](Cc2c[nH]c3ccccc23)NC(=O)[C@H](CCCNC(=N)N)NC(=O)[C@H](C)NC(=O)[C@H](C(C)C)NC(=O)[C@H](CCCNC(=N)N)NC(=O)[C@@H]2CCCN2C(=O)[C@H](CCCNC(=N)N)NC(=O)[C@@H](Cc2c[nH]c3ccccc23)NC(=O)CSC[C@@H](C(=O)N[C@@H](CO)C(N)=O)NC(=O)[C@H](Cc2ccc(O)cc2)NC(=O)[C@H]([C@@H](C)CC)NC1=O [P6, wRPRVARWTGQITYC] ({CH2CO}-[dW]RPRVARWTGQIIYCS-NH2; thioether N-15 (inferred); N-terminus and C-terminus assumed)
half-life [1]: 3 to 6 h

CC(C)[C@@H]1NC(=O)[C@H](Cc2ccc(O)cc2)NC(=O)[C@H](Cc2ccccc2)NC(=O)[C@H]([C@@H](C)O)NC(=O)CNC(=O)[C@H]([C@@H](C)O)NC(=O)[C@H](Cc2c[nH]c3ccccc23)NC(=O)[C@H](CCCNC(=N)N)NC(=O)[C@H](CC(=O)O)NC(=O)[C@H](Cc2ccc(O)cc2)NC(=O)[C@H](Cc2ccccc2)NC(=O)[C@H](Cc2c[nH]c3ccccc23)NC(=O)[C@H](CCCNC(=N)N)NC(=O)[C@@H](Cc2c[nH]c3ccccc23)NC(=O)CSC[C@@H](C(=O)NCC(N)=O)NC1=O [mp6-2, wRWFYDRWTGTFYVC] ({CH2CO}-[dW]RWFYDRWTGTFYVCG-NH2; thioether N-15)
interaction inhibiting activity between mouse Plexin B1 and Semaphorin 4D [2]: equivalent to that of the cyclic peptide P6

AVSNLPPRPHITYIE [P1]
Ka (Plexin B1 [3]): 20000 M⁻¹ s⁻¹
Kd (Plexin B1 [4]): 700 nM
Kd (Plexin B1 [5]): 0.014 s⁻¹

NGTLSWQTYSHL [P8]
Ka (Plexin B1 [3]): 53000 M⁻¹ s⁻¹
Kd (Plexin B1 [4]): 689 nM
Kd (Plexin B1 [5]): 0.037 s⁻¹

P6dPEG5: dimerized cyclic peptide P6 (FIG. 12b) ({CH2CO}-[dW]RPRVARWTGQIIYCS; thioether N-15; also: dimer: two units joined after S16 by PEG linkers)
ka (Plexin B1 [6]): 1.18e+06 M⁻¹ s⁻¹
kd (ms^-1) (Plexin B1 [7]): 0.447 ms^-1

RPRAARWTGQIIY (not fully specified) [P5]
Ka (Plexin B1 [3]): 21000 M⁻¹ s⁻¹
Kd (Plexin B1 [4]): 77.1 nM
Kd (Plexin B1 [5]): 0.002 s⁻¹

RVRVERWTGKLI (not fully specified) [P3]
Ka (Plexin B1 [3]): 4.27e+06 M⁻¹ s⁻¹
Kd (Plexin B1 [4]): 33.7 nM
Kd (Plexin B1 [5]): 0.144 s⁻¹

wRPRVARWTGQITYC [P6]
Ka (Plexin B1 [3]): 3.46e+06 M⁻¹ s⁻¹
Kd (Plexin B1 [8]): 3.81 nM
Kd (Plexin B1 [9]): 3.34 nM
kd (Plexin B1 [10]): 0.0151 s⁻¹
Kd (Plexin B1 [4]): 3.5 nM
Kd (Plexin B1 [5]): 0.012 s⁻¹

{CH2CO}-[dW]AVSNLPPRPHITYIECS (thioether N-17) [SEQ ID NO 40]
Kd (human Plexin B1 [11]): 700 nM
koff (human Plexin B1 [11]): 0.014 s⁻¹
kon (human Plexin B1 [11]): 20000 M⁻¹ s⁻¹

{CH2CO}-[dW]RPRVARWTGQIIYCS (thioether N-15) [SEQ ID NO 30]
Kd (human Plexin B1 [11]): 3.5 nM
koff (human Plexin B1 [11]): 0.012 s⁻¹
kon (human Plexin B1 [11]): 3.46e+06 M⁻¹ s⁻¹

{CH2CO}-[dW]NSNVLSWQTYSWYCS (thioether N-15) [SEQ ID NO 38]
Kd (human Plexin B1 [11]): 275 nM
koff (human Plexin B1 [11]): 0.01 s⁻¹
kon (human Plexin B1 [11]): 38000 M⁻¹ s⁻¹

{CH2CO}-[dW]NGTLSWQTYSHLCS (thioether N-14) [SEQ ID NO 39]
Kd (human Plexin B1 [11]): 689 nM
koff (human Plexin B1 [11]): 0.037 s⁻¹
kon (human Plexin B1 [11]): 53000 M⁻¹ s⁻¹

{CH2CO}-[dW]RVRVERWTGKLICS (thioether N-14) [SEQ ID NO 31]
Kd (human Plexin B1 [11]): 33.7 nM
koff (human Plexin B1 [11]): 0.144 s⁻¹
kon (human Plexin B1 [11]): 4.27e+06 M⁻¹ s⁻¹

{CH2CO}-[dW]RPRVARWTGQIIYCS (thioether N-15; also: dimer, two units joined after S16 by PEG linkers, also called dimerized cyclic peptide P6) [P6dPEG5]
Kd (human Plexin B1 [12]): 0.38 nM
kon (human Plexin B1 [12]): 1.18e+06 M⁻¹ s⁻¹

{CH2CO}-[dW]RPRAARWTGQIIYCS (thioether N-15) [SEQ ID NO 37]
Kd (human Plexin B1 [11]): 77.1 nM
koff (human Plexin B1 [11]): 0.002 s⁻¹
kon (human Plexin B1 [11]): 21000 M⁻¹ s⁻¹

{CH2CO}-[dW]LAYIERWTGQIVRCG (thioether N-15) [cyclic peptide mp6-5]
Kd (mouse Plexin B1): 507 nM
Kd (human Plexin B1 [13]): 174 nM

{CH2CO}-[dW]RAFIERWTGRLVVCG (thioether N-15) [cyclic peptide mp6-7]
Kd (mouse Plexin B1): 126 nM
Kd (human Plexin B1 [13]): 4.58 nM

{CH2CO}-[dW]LGYIARWTGTVVKCG (thioether N-15) [cyclic peptide mp6-3]
Kd (mouse Plexin B1): 227 nM
Kd (human Plexin B1 [13]): 241 nM
